Reference: paper PMC12170880

Key:
Conditions in all cases: EMSA: 10 mM Tris-HCl pH 7.5, 50 mM NaCl, 1 mM EDTA, 5% glycerol, 1 mg/mL BSA, 1 mM DTT; 30 min, room temperature; 6% native PAGE, 0.5x TBE
[1] = biological target: T1, HDIP1-a (Arabidopsis thaliana) (UniProt F4I0M4); assay: EMSA
T1 sequence: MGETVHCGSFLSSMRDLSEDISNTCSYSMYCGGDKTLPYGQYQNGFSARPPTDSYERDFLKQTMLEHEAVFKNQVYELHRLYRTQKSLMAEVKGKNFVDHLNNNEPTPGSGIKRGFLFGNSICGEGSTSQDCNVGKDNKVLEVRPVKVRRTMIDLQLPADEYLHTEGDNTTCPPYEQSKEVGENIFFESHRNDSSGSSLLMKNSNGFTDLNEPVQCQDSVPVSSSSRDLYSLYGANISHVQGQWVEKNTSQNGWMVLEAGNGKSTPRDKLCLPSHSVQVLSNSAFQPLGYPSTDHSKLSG

[2] = biological target: T2, HDIP1-c (Arabidopsis thaliana) (UniProt F4I0M4); assay: EMSA
T2 sequence: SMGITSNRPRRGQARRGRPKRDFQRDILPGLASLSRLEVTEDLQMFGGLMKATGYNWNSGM

[3] = biological target: T3, HDIP1-d (Arabidopsis thaliana) (UniProt F4I0M4); assay: EMSA
T3 sequence: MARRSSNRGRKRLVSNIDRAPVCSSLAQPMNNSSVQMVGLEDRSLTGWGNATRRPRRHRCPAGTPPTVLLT

[4] = biological target: T4, HDIP1-b (Arabidopsis thaliana) (UniProt F4I0M4); assay: EMSA
T4 sequence: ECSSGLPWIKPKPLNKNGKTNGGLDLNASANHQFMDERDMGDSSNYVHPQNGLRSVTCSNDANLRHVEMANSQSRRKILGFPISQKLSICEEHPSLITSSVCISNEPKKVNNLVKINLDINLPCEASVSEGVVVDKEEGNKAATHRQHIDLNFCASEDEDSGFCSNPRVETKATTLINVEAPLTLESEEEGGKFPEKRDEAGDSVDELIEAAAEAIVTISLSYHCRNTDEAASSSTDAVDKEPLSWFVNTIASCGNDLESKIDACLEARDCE

[5] = biological target: T5, HDIP3-DBD (Arabidopsis thaliana) (UniProt Q9LMG4); assay: EMSA
T5 sequence: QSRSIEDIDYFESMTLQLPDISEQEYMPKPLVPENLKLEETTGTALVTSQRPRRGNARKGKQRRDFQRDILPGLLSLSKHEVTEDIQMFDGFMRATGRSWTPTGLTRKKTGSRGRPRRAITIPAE

[6] = biological target: T2, HDIP1-c (Arabidopsis thaliana); assay: competition

| Sequence | binding [1] | binding [2] | binding [3] | binding [4] | binding [5] | binding [6] |
| --- | --- | --- | --- | --- | --- | --- |
| TGTGAAGAATGCAGTAAGAGGCAGTCAAAGATTCAAAGGGAAAAAAGTTTACGAAAACAAAAGATTATATTTTGGGAGTATTAGGCTGCCACGTGGAAACACTTGCACCGGCATTTGACCGTCGCCGACACATGACCTGGCACGTGCTAGAGACTGTCTTCTCTTCTTCTTCTTCTTTTTCCCTCACTGTTTCACGAACC (double strand) [P1 (200 bp)] | no binding | binds | no binding | no binding | binds | binds |
| TTCCTAAGAGGTCTAGATTGGTGCTTGGACTTTAATTTGGTCTTCGTCTCTCGTTCTCGTATTTATGCATTTTGAAACTCAAAAAAGGAAGAGAGAGAAGAATAATATGATTTTGGCTACTTGGTTTGGAAATAAGTTAATTAAGTAAAAGTGTATTGAGATATAATTCAATGGTACGTGTGTGAATCCAAAGTCGTGTT (double strand) [P3 (200 bp)] | – | binds | – | – | – | – |
| CCACTCCACATAGCTACGTCACTTAAAGTCCCATAGTAACTAATTTTCTTTGAATGTTATAGCAAATTATTAGCAATGTATGATTCTTTGGGTCAAATCTTACACTAAAAACATGAAAATAATTTGAATATCAAGAGATTCATATATTCATATTTTATAACCAAAATATGTAGGGTCTAAATTATTGCTTCTTGACTAGG (double strand) [P2 (200 bp)] | – | binds | – | – | – | – |
